The record followed here is US20250051428A1 (UNIVERSITY OF BRITISH COLUMBIA, published 2025).

In assay [1] the target is T1, commercially-prepared stable A-beta42 Oligomers (SynAging SAS) (human).
T1 construct: Bought oligomer preparation; also called AbO; SynAging AbO
Nature of the assay: ProteOn biosensor, antibody captured with anti-mouse IgG or amine-coupled on GLM chip, AbO 12.3 nM to 1 µM; hybridoma-purified antibody. The method, then: (§1) AbO 3 fold-dilutions were used: 1 μM, 0.33 μM, 0.11 μM, 37 nM, 12.3 nM. Assay buffer was PBS-E+Tween 20+2 mg/ml BSA.

Assay [2] has as its target T2, cyclo(CGHHQKG) conjugated to BSA (also: conjugated to BSA, site not given here).
T2 construct: also called Cyclic Peptide; cyclopeptide
T2 peptide: cyclo(CGHHQKG)
The assay can be described thus: ProteOn biosensor, antibody amine-coupled to GLH chip, cyclo-BSA 111 pM to 9 nM. The method, then: Cyclo-BSA 3-fold dilutions were used from 9 nM to 111 pM. Assay buffer was PBS-E+0.05% Tween+10 mg/ml BSA.

Assay [3] deals with T1, commercially-prepared stable A-beta42 …. The assay can be described thus: ProteOn biosensor, antibody captured with anti-mouse IgG or amine-coupled on GLM chip, AbO 12.3 nM to 1 µM; upper end of the printed range 16.2-19.5 nM; test or coupling not stated. The method, then:
as §1

The target is the same in assay [4]. The assay can be described thus: ProteOn biosensor, antibody captured with anti-mouse IgG or amine-coupled on GLM chip, AbO 12.3 nM to 1 µM; lower end of the printed range 16.2-19.5 nM; test or coupling not stated. The method, then: as §1

T1 sequence (peptide, as listed by the source): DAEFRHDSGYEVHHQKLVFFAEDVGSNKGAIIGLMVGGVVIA

B1: 301-17 (hybridoma-purified IgG3) (antibody, V domains shown)
VH: QVQLQQPGAELVKPGASVKMSCKASGYSFTSYWINWVKQRPGQGLEWIGDVHPGRGVSTYNAKFKSKATLTLDTSSSTAYMQLSSLTSEDSAVYYCSRSHGNTYWFFDVWGAGTTVTVSS
VL: DVLMTQTPLSLPVSLGDQASISCRSSQSIVHSNGNTYLEWYLQKPGQSPKLLIYKVSNRFSGVPDRFSGSGSGTDFTLKISRVEAEDLGVYYCFQGSHVPFTFGSGTKLEIK
notes: Mouse hybridoma monoclonal, IgG3
The molecule B1 yielded a Kd in assay [1] of about 26.9 nM.

B2: Recombinant 301-17 IgG2a (antibody)
heavy: QVQLQQPGAELVKPGASVKMSCKASGYSFTSYWINWVKQRPGQGLEWIGDVHPGRGVSTYNAKFKSKATLTLDTSSSTAYMQLSSLTSEDSAVYYCSRSHGNTYWFFDVWGAGTTVTVSSAKTTAPSVYPLAPVCGDTTGSSVTLGCLVKGYFPEPVTLTWNSGSLSSGVHTFPAVLQSDLYTLSSSVTVTSSTWPSQSITCNVAHPASSTKVDKKIEPRGPTIKPCPPCKCPAPNLLGGPSVFIFPPKIKDVLMISLSPIVTCVVVDVSEDDPDVQISWFVNNVEVHTAQTQTHREDYNSTLRVVSALPIQHQDWMSGKEFKCKVNNKDLPAPIERTISKPKGSVRAPQVYVLPPPEEEMTKKQVTLTCMVTDFMPEDIYVEWTNNGKTELNYKNTEPVLDSDGSYFMYSKLRVEKKNWVERNSYSCSVVHEGLHNHHTTKSFSRTPGK
light: DVLMTQTPLSLPVSLGDQASISCRSSQSIVHSNGNTYLEWYLQKPGQSPKLLIYKVSNRFSGVPDRFSGSGSGTDFTLKISRVEAEDLGVYYCFQGSHVPFTFGSGTKLEIKRADAAPTVSIFPPSSEQLTSGGASVVCFLNNFYPKDINVKWKIDGSERQNGVLNSWTDQDSKDSTYSMSSTLTLTKDEYERHNSYTCEATHKTSTSPIVKSFNRNEC
As to B2, the equilibrium dissociation constant (Kd) was about 0.017 nM in assay [2], 16.2 to 19.5 nM in assay [3] and 16.2 to 19.5 nM in assay [4].
